B1: Pistol ribozyme (parent)
chain: GGGUCGUUGUUCCAUAAUCGCGUGGAUAUGGCACGCAAGUUUCUACCGGGCACCGUAAAUGUCCGACUGGAGCCGUUCGGGCGGCUAUAAACAGACCUCAGGCCCGAAGCGUGGCGGCACCUGCCGCCGGUGGUAAAAAAGAUCGGAAGAGCACACGUCU

Variants of: B1
Experiment: aptazyme ON/OFF ratio, guanine; higher = stronger switching; co-transcriptional cleavage with and without guanine

Variant	aptazyme ON/OFF ratio
GGGUCGGCUUAUUAUAAUCGCGUGGAUAUGGCACGCAAGUUUCUACCGGGCACCGUAAAUGUCCGACUGGAGCCGUUCGGGCGGCUAUAAACAGACCUCAGGCCCGAAGCGUGGCGGCACCUGCCGCCGGUGGUAAAAAAGAUCGGAAGAGCACACGUCU [U7G U8C G9U U11A C12U C13U]	1.41
GGGUCGGCUUAUGAUAAUCGCGUGGAUAUGGCACGCAAGUUUCUACCGGGCACCGUAAAUGUCCGACUGGAGCCGUUCGGGCGGCUAUAAACAGACCUCAGGCCCGAAGCGUGGCGGCACCUGCCGCCGGUGGUAAAAAAGAUCGGAAGAGCACACGUCU [U7G U8C G9U U11A C12U C13G]	1.17
GGGUCGGCUUAUAAUAAUCGCGUGGAUAUGGCACGCAAGUUUCUACCGGGCACCGUAAAUGUCCGACUGGAGCCGUUCGGGCGGCUAUAAACAGACCUCAGGCCCGAAGCGUGGCGGCACCUGCCGCCGGUGGUAAAAAAGAUCGGAAGAGCACACGUCU [U7G U8C G9U U11A C12U C13A]	1.46
GGGUCGGCUUCACAUAAUCGCGUGGAUAUGGCACGCAAGUUUCUACCGGGCACCGUAAAUGUCCGACUGGAGCCGUUCGGGCGGCUAUAAACAGACCUCAGGCCCGAAGCGUGGCGGCACCUGCCGCCGGUGGUAAAAAAGAUCGGAAGAGCACACGUCU [U7G U8C G9U U11C C12A]	1.31
GGGUCGGCUUCUCAUAAUCGCGUGGAUAUGGCACGCAAGUUUCUACCGGGCACCGUAAAUGUCCGACUGGAGCCGUUCGGGCGGCUAUAAACAGACCUCAGGCCCGAAGCGUGGCGGCACCUGCCGCCGGUGGUAAAAAAGAUCGGAAGAGCACACGUCU [U7G U8C G9U U11C C12U]	2.13
GGGUCGGCUUCGCAUAAUCGCGUGGAUAUGGCACGCAAGUUUCUACCGGGCACCGUAAAUGUCCGACUGGAGCCGUUCGGGCGGCUAUAAACAGACCUCAGGCCCGAAGCGUGGCGGCACCUGCCGCCGGUGGUAAAAAAGAUCGGAAGAGCACACGUCU [U7G U8C G9U U11C C12G]	1.37
GGGUCGGCUUACUAUAAUCGCGUGGAUAUGGCACGCAAGUUUCUACCGGGCACCGUAAAUGUCCGACUGGAGCCGUUCGGGCGGCUAUAAACAGACCUCAGGCCCGAAGCGUGGCGGCACCUGCCGCCGGUGGUAAAAAAGAUCGGAAGAGCACACGUCU [U7G U8C G9U U11A C13U]	1.56
GGGUCGGCUUACAAUAAUCGCGUGGAUAUGGCACGCAAGUUUCUACCGGGCACCGUAAAUGUCCGACUGGAGCCGUUCGGGCGGCUAUAAACAGACCUCAGGCCCGAAGCGUGGCGGCACCUGCCGCCGGUGGUAAAAAAGAUCGGAAGAGCACACGUCU [U7G U8C G9U U11A C13A]	1.22
GGGUCGGCUUACGAUAAUCGCGUGGAUAUGGCACGCAAGUUUCUACCGGGCACCGUAAAUGUCCGACUGGAGCCGUUCGGGCGGCUAUAAACAGACCUCAGGCCCGAAGCGUGGCGGCACCUGCCGCCGGUGGUAAAAAAGAUCGGAAGAGCACACGUCU [U7G U8C G9U U11A C13G]	1.02
GGGUCGGCUUCUGAUAAUCGCGUGGAUAUGGCACGCAAGUUUCUACCGGGCACCGUAAAUGUCCGACUGGAGCCGUUCGGGCGGCUAUAAACAGACCUCAGGCCCGAAGCGUGGCGGCACCUGCCGCCGGUGGUAAAAAAGAUCGGAAGAGCACACGUCU [U7G U8C G9U U11C C12U C13G]	1.05
GGGUCGGCUUCUAAUAAUCGCGUGGAUAUGGCACGCAAGUUUCUACCGGGCACCGUAAAUGUCCGACUGGAGCCGUUCGGGCGGCUAUAAACAGACCUCAGGCCCGAAGCGUGGCGGCACCUGCCGCCGGUGGUAAAAAAGAUCGGAAGAGCACACGUCU [U7G U8C G9U U11C C12U C13A]	1.31
GGGUCGGCUUCUUAUAAUCGCGUGGAUAUGGCACGCAAGUUUCUACCGGGCACCGUAAAUGUCCGACUGGAGCCGUUCGGGCGGCUAUAAACAGACCUCAGGCCCGAAGCGUGGCGGCACCUGCCGCCGGUGGUAAAAAAGAUCGGAAGAGCACACGUCU [U7G U8C G9U U11C C12U C13U]	1.49
GGGUCGGCUUCAGAUAAUCGCGUGGAUAUGGCACGCAAGUUUCUACCGGGCACCGUAAAUGUCCGACUGGAGCCGUUCGGGCGGCUAUAAACAGACCUCAGGCCCGAAGCGUGGCGGCACCUGCCGCCGGUGGUAAAAAAGAUCGGAAGAGCACACGUCU [U7G U8C G9U U11C C12A C13G]	1.32
GGGUCGGCUUCAAAUAAUCGCGUGGAUAUGGCACGCAAGUUUCUACCGGGCACCGUAAAUGUCCGACUGGAGCCGUUCGGGCGGCUAUAAACAGACCUCAGGCCCGAAGCGUGGCGGCACCUGCCGCCGGUGGUAAAAAAGAUCGGAAGAGCACACGUCU [U7G U8C G9U U11C C12A C13A]	1.36
GGGUCGGCUUCAUAUAAUCGCGUGGAUAUGGCACGCAAGUUUCUACCGGGCACCGUAAAUGUCCGACUGGAGCCGUUCGGGCGGCUAUAAACAGACCUCAGGCCCGAAGCGUGGCGGCACCUGCCGCCGGUGGUAAAAAAGAUCGGAAGAGCACACGUCU [U7G U8C G9U U11C C12A C13U]	1.23
GGGUCGGCUUAGAAUAAUCGCGUGGAUAUGGCACGCAAGUUUCUACCGGGCACCGUAAAUGUCCGACUGGAGCCGUUCGGGCGGCUAUAAACAGACCUCAGGCCCGAAGCGUGGCGGCACCUGCCGCCGGUGGUAAAAAAGAUCGGAAGAGCACACGUCU [U7G U8C G9U U11A C12G C13A]	1.1
GGGUCGGCUUAGGAUAAUCGCGUGGAUAUGGCACGCAAGUUUCUACCGGGCACCGUAAAUGUCCGACUGGAGCCGUUCGGGCGGCUAUAAACAGACCUCAGGCCCGAAGCGUGGCGGCACCUGCCGCCGGUGGUAAAAAAGAUCGGAAGAGCACACGUCU [U7G U8C G9U U11A C12G C13G]	1.13
GGGUCGGCUUAGUAUAAUCGCGUGGAUAUGGCACGCAAGUUUCUACCGGGCACCGUAAAUGUCCGACUGGAGCCGUUCGGGCGGCUAUAAACAGACCUCAGGCCCGAAGCGUGGCGGCACCUGCCGCCGGUGGUAAAAAAGAUCGGAAGAGCACACGUCU [U7G U8C G9U U11A C12G C13U]	1.22

Variant	aptazyme ON/OFF ratio
GGGUCGGCUUAACAUAAUCGCGUGGAUAUGGCACGCAAGUUUCUACCGGGCACCGUAAAUGUCCGACUGGAGCCGUUCGGGCGGCUAUAAACAGACCUCAGGCCCGAAGCGUGGCGGCACCUGCCGCCGGUGGUAAAAAAGAUCGGAAGAGCACACGUCU [U7G U8C G9U U11A C12A]	2.91
GGGUCGGCUUAUCAUAAUCGCGUGGAUAUGGCACGCAAGUUUCUACCGGGCACCGUAAAUGUCCGACUGGAGCCGUUCGGGCGGCUAUAAACAGACCUCAGGCCCGAAGCGUGGCGGCACCUGCCGCCGGUGGUAAAAAAGAUCGGAAGAGCACACGUCU [U7G U8C G9U U11A C12U]	2.56
GGGUCGGCUUAGCAUAAUCGCGUGGAUAUGGCACGCAAGUUUCUACCGGGCACCGUAAAUGUCCGACUGGAGCCGUUCGGGCGGCUAUAAACAGACCUCAGGCCCGAAGCGUGGCGGCACCUGCCGCCGGUGGUAAAAAAGAUCGGAAGAGCACACGUCU [U7G U8C G9U U11A C12G]	2.17
GGGUCGGCUUGACAUAAUCGCGUGGAUAUGGCACGCAAGUUUCUACCGGGCACCGUAAAUGUCCGACUGGAGCCGUUCGGGCGGCUAUAAACAGACCUCAGGCCCGAAGCGUGGCGGCACCUGCCGCCGGUGGUAAAAAAGAUCGGAAGAGCACACGUCU [U7G U8C G9U U11G C12A]	1.44
GGGUCGGCUUCGUAUAAUCGCGUGGAUAUGGCACGCAAGUUUCUACCGGGCACCGUAAAUGUCCGACUGGAGCCGUUCGGGCGGCUAUAAACAGACCUCAGGCCCGAAGCGUGGCGGCACCUGCCGCCGGUGGUAAAAAAGAUCGGAAGAGCACACGUCU [U7G U8C G9U U11C C12G C13U]	1.32
GGGUCGGCUUCGAAUAAUCGCGUGGAUAUGGCACGCAAGUUUCUACCGGGCACCGUAAAUGUCCGACUGGAGCCGUUCGGGCGGCUAUAAACAGACCUCAGGCCCGAAGCGUGGCGGCACCUGCCGCCGGUGGUAAAAAAGAUCGGAAGAGCACACGUCU [U7G U8C G9U U11C C12G C13A]	1.3
GGGUCGGCUUCGGAUAAUCGCGUGGAUAUGGCACGCAAGUUUCUACCGGGCACCGUAAAUGUCCGACUGGAGCCGUUCGGGCGGCUAUAAACAGACCUCAGGCCCGAAGCGUGGCGGCACCUGCCGCCGGUGGUAAAAAAGAUCGGAAGAGCACACGUCU [U7G U8C G9U U11C C12G C13G]	1.32
GGGUCGGCUUAAGAUAAUCGCGUGGAUAUGGCACGCAAGUUUCUACCGGGCACCGUAAAUGUCCGACUGGAGCCGUUCGGGCGGCUAUAAACAGACCUCAGGCCCGAAGCGUGGCGGCACCUGCCGCCGGUGGUAAAAAAGAUCGGAAGAGCACACGUCU [U7G U8C G9U U11A C12A C13G]	1.14
GGGUCGGCUUAAUAUAAUCGCGUGGAUAUGGCACGCAAGUUUCUACCGGGCACCGUAAAUGUCCGACUGGAGCCGUUCGGGCGGCUAUAAACAGACCUCAGGCCCGAAGCGUGGCGGCACCUGCCGCCGGUGGUAAAAAAGAUCGGAAGAGCACACGUCU [U7G U8C G9U U11A C12A C13U]	1.5
GGGUCGGCUUAAAAUAAUCGCGUGGAUAUGGCACGCAAGUUUCUACCGGGCACCGUAAAUGUCCGACUGGAGCCGUUCGGGCGGCUAUAAACAGACCUCAGGCCCGAAGCGUGGCGGCACCUGCCGCCGGUGGUAAAAAAGAUCGGAAGAGCACACGUCU [U7G U8C G9U U11A C12A C13A]	1.28
GGGUCGGCUUCCUAUAAUCGCGUGGAUAUGGCACGCAAGUUUCUACCGGGCACCGUAAAUGUCCGACUGGAGCCGUUCGGGCGGCUAUAAACAGACCUCAGGCCCGAAGCGUGGCGGCACCUGCCGCCGGUGGUAAAAAAGAUCGGAAGAGCACACGUCU [U7G U8C G9U U11C C13U]	1.3
GGGUCGGCUUCCGAUAAUCGCGUGGAUAUGGCACGCAAGUUUCUACCGGGCACCGUAAAUGUCCGACUGGAGCCGUUCGGGCGGCUAUAAACAGACCUCAGGCCCGAAGCGUGGCGGCACCUGCCGCCGGUGGUAAAAAAGAUCGGAAGAGCACACGUCU [U7G U8C G9U U11C C13G]	1.04
GGGUCGGCUUCCAAUAAUCGCGUGGAUAUGGCACGCAAGUUUCUACCGGGCACCGUAAAUGUCCGACUGGAGCCGUUCGGGCGGCUAUAAACAGACCUCAGGCCCGAAGCGUGGCGGCACCUGCCGCCGGUGGUAAAAAAGAUCGGAAGAGCACACGUCU [U7G U8C G9U U11C C13A]	1.38
GGGUCGGCUUGCCAUAAUCGCGUGGAUAUGGCACGCAAGUUUCUACCGGGCACCGUAAAUGUCCGACUGGAGCCGUUCGGGCGGCUAUAAACAGACCUCAGGCCCGAAGCGUGGCGGCACCUGCCGCCGGUGGUAAAAAAGAUCGGAAGAGCACACGUCU [U7G U8C G9U U11G]	1.36
GGGUCGGCUUCCCAUAAUCGCGUGGAUAUGGCACGCAAGUUUCUACCGGGCACCGUAAAUGUCCGACUGGAGCCGUUCGGGCGGCUAUAAACAGACCUCAGGCCCGAAGCGUGGCGGCACCUGCCGCCGGUGGUAAAAAAGAUCGGAAGAGCACACGUCU [U7G U8C G9U U11C]	2.88
GGGUCGGCUUACCAUAAUCGCGUGGAUAUGGCACGCAAGUUUCUACCGGGCACCGUAAAUGUCCGACUGGAGCCGUUCGGGCGGCUAUAAACAGACCUCAGGCCCGAAGCGUGGCGGCACCUGCCGCCGGUGGUAAAAAAGAUCGGAAGAGCACACGUCU [U7G U8C G9U U11A]	1.8
GGGUCGGCUGGCUAUAAUCGCGUGGAUAUGGCACGCAAGUUUCUACCGGGCACCGUAAAUGUCCGACUGGAGCCGUUCGGGCGGCUAUAAACAGACCUCAGGCCCGAAGCGUGGCGGCACCUGCCGCCGGUGGUAAAAAAGAUCGGAAGAGCACACGUCU [U7G U8C G9U U10G U11G C13U]	1.36
GGGUCGGCUUGAAAUAAUCGCGUGGAUAUGGCACGCAAGUUUCUACCGGGCACCGUAAAUGUCCGACUGGAGCCGUUCGGGCGGCUAUAAACAGACCUCAGGCCCGAAGCGUGGCGGCACCUGCCGCCGGUGGUAAAAAAGAUCGGAAGAGCACACGUCU [U7G U8C G9U U11G C12A C13A]	1.11

— the RNAGym collection of RNA variant scans (doi:10.1021/acssynbio.7b00057)
